Each block holds one molecule with its values, some of them ahead of it.
Target: T1, nSR100 (Mus musculus, UniProt Q8BKA3)
T1 construct: host or cells: mouse N2A cells
T1 sequence (Q8BKA3 1-608): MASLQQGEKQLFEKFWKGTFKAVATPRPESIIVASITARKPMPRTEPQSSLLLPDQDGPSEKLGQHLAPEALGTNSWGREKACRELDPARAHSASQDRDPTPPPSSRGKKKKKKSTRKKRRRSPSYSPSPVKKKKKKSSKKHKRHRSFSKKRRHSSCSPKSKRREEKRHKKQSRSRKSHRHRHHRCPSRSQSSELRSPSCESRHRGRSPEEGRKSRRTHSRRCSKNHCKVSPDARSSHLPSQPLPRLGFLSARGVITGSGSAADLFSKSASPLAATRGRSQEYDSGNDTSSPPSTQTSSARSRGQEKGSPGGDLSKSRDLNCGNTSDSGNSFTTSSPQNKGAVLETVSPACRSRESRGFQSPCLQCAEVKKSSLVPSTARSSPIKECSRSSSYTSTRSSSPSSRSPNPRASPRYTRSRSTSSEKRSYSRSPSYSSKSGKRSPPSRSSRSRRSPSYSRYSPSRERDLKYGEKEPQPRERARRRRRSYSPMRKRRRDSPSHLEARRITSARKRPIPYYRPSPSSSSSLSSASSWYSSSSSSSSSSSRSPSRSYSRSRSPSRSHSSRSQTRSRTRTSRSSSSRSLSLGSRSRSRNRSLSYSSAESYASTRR
Test: AP-MS nSR100 interaction partners from mouse N2A cells (Table 5)
Format: binding
Settings: for AvgP (average of the SAINT scores) / MaxP (maximal SAINT score): bait Srrm4; for FoldChange between the prey Avg spectra of the bait and control purifications: bait Srrm4, 0.1 added to prevent division by 0; for AvgSpec (average number of spectra per replicate): bait Srrm4, 2 replicates; for Spectra (number of spectra for the prey in the purification of the bait): AP-MS; for SpecSum: bait Srrm4, sum of spectra over 2 replicates

[1] = bait Srrm4, biological replicate 1 (first number of the cell)
[2] = bait Srrm4, biological replicate 2 (second number of the cell)

Source text: By applying affinity purification coupled to mass-spectrometry (AP-MS), several interaction nSR100 partner proteins were detected that provide insight into mechanisms of post-translational regulation of nSR100 levels.

AvgP (average of the SAINT scores): 1
MaxP (maximal SAINT score): 1
FoldChange between the prey Avg spectra of the bait and control purifications: 65
AvgSpec (average number of spectra per replicate): 6.5
Spectra (number of spectra for the prey in the purification of the bait) [1]: 6
Spectra (number of spectra for the prey in the purification of the bait) [2]: 7
SpecSum: 13
B1: Ddx41 (protein, UniProt Q91VN6 1-622, looked up)
Probable ATP-dependent RNA …: MEDSEPERKRARADEATAGGSRSEDEDEDDEDYVPYVPLRQRRQLLLQKLLQRRRKGATEEEQQDSGSEPRGDEDDIPLGPQSNVSLLDQHQHLKEKAEARKESAKEKQLKEEEKILESVAEGRALMSVKEMAKGITYDDPIKTSWTPPRYVLSMSEERHERVRKKYHILVEGDGIPPPIKSFKEMKFPAAILRGLKKKGILHPTPIQIQGIPTILSGRDMIGIAFTGSGKTLVFTLPVIMFCLEQEKRLPFSKREGPYGLIICPSRELARQTHGILEYYCRLLQEDSSPLLRCALCIGGMSVKEQMETIRHGVHMMVATPGRLMDLLQKKMVSLDICRYLALDEADRMIDMGFEGDIRTIFSYFKGQRQTLLFSATMPKKIQNFAKSALVKPVTINVGRAGAASLDVIQEVEYVKEEAKMVYLLECLQKTPPPVLIFAEKKADVDAIHEYLLLKGVEAVAIHGGKDQEERTKAIEAFREGKKDVLVATDVASKGLDFPAIQHVINYDMPEEIENYVHRIGRTGRSGNTGIATTFINKACDESVLMDLKALLLEAKQKVPPVLQVLHCGDESMLDIGGERGCAFCGGLGHRITDCPKLEAMQTKQVSNIGRKDYLAHSSMDF

AvgP (average of the SAINT scores): 1
MaxP (maximal SAINT score): 1
FoldChange between the prey Avg spectra of the bait and control purifications: 160
AvgSpec (average number of spectra per replicate): 16
Spectra (number of spectra for the prey in the purification of the bait) [1]: 20
Spectra (number of spectra for the prey in the purification of the bait) [2]: 12
SpecSum: 32
B2: Pgam5 (protein, UniProt Q8BX10 1-288, looked up)
Serine/threonine-protein …: MAFRQALQLAACGLAGGSAAVLFSAVAVGKPRGGGDADTRATEPPAWTGARAGRGVWDTNWDRREPLSLINLKKRNVESGEDELTSRLDHYKAKATRHIFLIRHSQYHVDGSLEKDRTLTPLGREQAELTGLRLASLGLKFNKIVHSSMTRAVETTDIISKHLPGVSRVSTDLLREGAPIEPDPPVSHWKPEAVQYYEDGARIEAAFRNYIHRADARQEEDSYEIFICHANVIRYIVCRALQFPPEGWLRLSLNNGSITHLVIRPNGRVALRTLGDTGFMPPDKITRS

AvgP (average of the SAINT scores): 1
MaxP (maximal SAINT score): 1
FoldChange between the prey Avg spectra of the bait and control purifications: 70
AvgSpec (average number of spectra per replicate): 7
Spectra (number of spectra for the prey in the purification of the bait) [1]: 5
Spectra (number of spectra for the prey in the purification of the bait) [2]: 9
SpecSum: 14
B3: Snip1 (protein, UniProt Q8BIZ6 1-383, looked up)
Smad nuclear-interacting …: MKAGKSERERSGRRRHRSGDALTTVVVKQERLSPEPVAHRRPDAPAASLSPPAAEPGHSGHRGSRARSPAKKKSKSSGRRSKSPRTKRSQSPHYPMVKVKQEREDHPRRGREDRQHREPSEQEHRRARNSERDRHRGHSRQGRSSDERPVSGQDRDRDSQNLQAQEEERDFHNARRREHRQQNESAGSEAQEVIPRPAGNRSKEVPVKEKPSFELSGALLEDTNTFRGVVIKYSEPPEARIPKKRWRLYPFKNDEVLPVMYIHRQSAYLLGRHRRIADIPIDHPSCSKQHAVFQYRLVEYTRADGTVGRRVKPYIIDLGSGNGTFLNNKRIEPQRYYELKEKDVLKFGFSSREYVLLHESSDTSELDRKEDEDDEEEEMVSDS

AvgP (average of the SAINT scores): 1
MaxP (maximal SAINT score): 1
FoldChange between the prey Avg spectra of the bait and control purifications: 125
AvgSpec (average number of spectra per replicate): 12.5
Spectra (number of spectra for the prey in the purification of the bait) [1]: 12
Spectra (number of spectra for the prey in the purification of the bait) [2]: 13
SpecSum: 25
B4: Necap1 (protein, UniProt Q9CR95 1-275, looked up)
Adaptin ear-binding …: MAAELEYESVLCVKPDVSVYRIPPRASNRGYRASDWKLDQPDWTGRLRITSKGKIAYIKLEDKVSGELFAQAPVEQYPGIAVETVTDSSRYFVIRIQDGTGRSAFIGIGFTDRGDAFDFNVSLQDHFKWVKQETEISKESQEMDNRPKLDLGFKEGQTIKLSIGNITAKKGGASKPRASGTGGLSLLPPPPGGKVTIPPPSSSVAISNHVTPPPIPKSNHGGNDSDILLDLDSPAPVSTSAPAPVSTSNDLWGDFSTASSSVPNQAPQPSNWVQF

AvgP (average of the SAINT scores): 1
MaxP (maximal SAINT score): 1
FoldChange between the prey Avg spectra of the bait and control purifications: 225
AvgSpec (average number of spectra per replicate): 22.5
Spectra (number of spectra for the prey in the purification of the bait) [1]: 17
Spectra (number of spectra for the prey in the purification of the bait) [2]: 28
SpecSum: 45
B5: Sap18 (protein, UniProt O55128 2-153, looked up)
Histone deacetylase complex …: AVESRVTQEEIKKEPEKPIDREKTCPLLLRVFTTNNGRHHRMDEFSRGNVPSSELQIYTWMDATLKELTSLVKEVYPEARKKGTHFNFAIVFMDLKRPGYRVKEIGSTMSGRKGTDDSMTLQSQKFQIGDYLDIAITPPNRAPPSSGRMRPY

AvgP (average of the SAINT scores): 1
MaxP (maximal SAINT score): 1
FoldChange between the prey Avg spectra of the bait and control purifications: 145
AvgSpec (average number of spectra per replicate): 14.5
Spectra (number of spectra for the prey in the purification of the bait) [1]: 11
Spectra (number of spectra for the prey in the purification of the bait) [2]: 18
SpecSum: 29
B6: Snx8 (protein, UniProt Q8CFD4 1-459, looked up)
Sorting nexin-8: MTGRAMDPLPSPAVAAAAEAEADEEADPPATGPRTSQVTEWRALDPGRMQMPQGNPLLLSYTLQELLAKDTVQVELIPEKKGLFLKHVEYEVSSQRFKSSVYRRYNDFVVFHEVLLHKFPYRMVPALPPKRVLGADREFIEGRRRALKRFINLVARHPPFSEDVLLKLFLSFSGSDVQHKLKEAAQCVGDEFMNCKLAARAKDFLPADIQTQFAMSRELIRNVYNSFYKLRDRAERIASRAIDNAADLLIFGKELSALGSDTTPLPSWAALHLSTWGSLKQALKGLSVEFALLADRAAQQGKKEENDVVEKLNLFLDLLQSYKDLCERHEKGVLHKHQRALHKYGLMKRQMMSAAHGREPESVEQLESRIVEQENVIQTMELRNYFSLYCLHQETQLVHVYLPLTSHILGAFVNSQIQGHKEMSKVWNDLKPKLSCLFAGPHSVLTPPRSPQEDGVCPH

AvgP (average of the SAINT scores): 1
MaxP (maximal SAINT score): 1
FoldChange between the prey Avg spectra of the bait and control purifications: 7.33
AvgSpec (average number of spectra per replicate): 55
Spectra (number of spectra for the prey in the purification of the bait) [1]: 45
Spectra (number of spectra for the prey in the purification of the bait) [2]: 65
SpecSum: 110
B7: Luc7l3 (protein, UniProt Q5SUF2 1-432, looked up)
Luc7-like protein 3: MISAAQLLDELMGRDRNLAPDEKRSNVRWDHESVCKYYLCGFCPAELFTNTRSDLGPCEKIHDENLRKQYEKSSRFMKVGYERDFLRYLQSLLAEVERRIRRGHARLALSQNQQSSGAAGPTGKNEEKIQVLTDKIDVLLQQIEELGSEGKVEEAQGMMKLVEQLKEERELLRSTTSTIESFAAQEKQMEVCEVCGAFLIVGDAQSRVDDHLMGKQHMGYAKIKATVEELKEKLRKRTEEPDRDERLKKEKQEREEREKEREREREERERKRRREEEEREKERARDRERRKRSRSRSRHSSRTSDRRCSRSRDHKRSRSRDRRRSRSRDRRRSRSHDRSERKHRSRSRDRRRSKSRDRKSYKHRSKSRDREQDRKSKEKEKKGSDDKKSSVKSSSREKQSEDTNPESKESDTKNEVNGTSEDIKSEGDTQSN

AvgP (average of the SAINT scores): 1
MaxP (maximal SAINT score): 1
FoldChange between the prey Avg spectra of the bait and control purifications: 110
AvgSpec (average number of spectra per replicate): 11
Spectra (number of spectra for the prey in the purification of the bait) [1]: 10
Spectra (number of spectra for the prey in the purification of the bait) [2]: 12
SpecSum: 22
B8: Cdc5l (protein, UniProt Q6A068 1-802, looked up)
Cell division cycle 5-like …: MPRIMIKGGVWRNTEDEILKAAVMKYGKNQWSRIASLLHRKSAKQCKARWYEWLDPSIKKTEWSREEEEKLLHLAKLMPTQWRTIAPIIGRTAAQCLEHYEFLLDKTAQRDNEEETTDDPRKLKPGEIDPNPETKPARPDPIDMDEDELEMLSEARARLANTQGKKAKRKAREKQLEEARRLAALQKRRELRAAGIEIQKKRKKKRGVDYNAEIPFEKKPALGFYDTSEENYQALDADFRKLRQQDLDGELRSEKEGRDRKKDKQHLKRKKESDLPSAILQTSGVSEFTKKRSKLVLPAPQISDAELQEVVKVGQASEVARQTAEESGITNSASSTLLSEYNVTNNSIALRTPRTPASQDRILQEAQNLMALTNVDTPLKGGLNTPLHESDFSGVTPQRQVVQTPNTVLSTPFRTPSNGAEGLTPRSGTTPKPVTNATPGRTPLRDKLNINPEDGMADYSDPSYVKQMERESREHLRLGLLGLPAPKNDFEIVLPENAEKELEEREIDDTYIEDAADVDARKQAIRDAERVKEMKRMHKAVQKDLPRPSEVNETILRPLNVEPPLTDLQKSEELIKKEMITMLHYDLLHHPYEPSGNKKGKNVGFATNNSEHITYLEHSPYEKFSKEDLKKAQDALVQEMEVVKQGMSHGELSSEAYNQVWEECYSQVLYLPAQSRYTRANLASKKDRIESLEKRLEINRGHMTTEAKRAAKMEKKMKILLGGYQSRAMGLMKQLNDLWDQIEQAHLELRTFEELKKHEDSAIPRRLECLKEDVQRQQEREKELQQRYADLLMEKETLQAKF

AvgP (average of the SAINT scores): 1
MaxP (maximal SAINT score): 1
FoldChange between the prey Avg spectra of the bait and control purifications: 55
AvgSpec (average number of spectra per replicate): 5.5
Spectra (number of spectra for the prey in the purification of the bait) [1]: 6
Spectra (number of spectra for the prey in the purification of the bait) [2]: 5
SpecSum: 11
B9: Snrpb2 (protein, UniProt Q9CQI7 1-225, looked up)
U2 small nuclear …: MDIRPNHTIYINNMNDKIKKEELKRSLYALFSQFGHVVDIVALKTMKMRGQAFVIFKELGSSTNALRQLQGFPFYGKPMRIQYAKTDSDIISKMRGTFADKEKKKEKKKAKTMEQAAAAANKKPGQGTPNAANTQGTAAPNPQVPDYPPNYILFLNNLPEETNEMMLSMLFNQFPGFKEVRLVPGRHDIAFVEFENDGQAGAARDALQGFKITPSHAMKITYAKK
